The target of test [1] is T1, human CD19 on CD19-positive cells (Daudi, Raji, Ramos; CD19+ tumor cell line) (human, UniProt P15391 20-556).
T1 construct: whole, on cells
T1 sequence (looked up): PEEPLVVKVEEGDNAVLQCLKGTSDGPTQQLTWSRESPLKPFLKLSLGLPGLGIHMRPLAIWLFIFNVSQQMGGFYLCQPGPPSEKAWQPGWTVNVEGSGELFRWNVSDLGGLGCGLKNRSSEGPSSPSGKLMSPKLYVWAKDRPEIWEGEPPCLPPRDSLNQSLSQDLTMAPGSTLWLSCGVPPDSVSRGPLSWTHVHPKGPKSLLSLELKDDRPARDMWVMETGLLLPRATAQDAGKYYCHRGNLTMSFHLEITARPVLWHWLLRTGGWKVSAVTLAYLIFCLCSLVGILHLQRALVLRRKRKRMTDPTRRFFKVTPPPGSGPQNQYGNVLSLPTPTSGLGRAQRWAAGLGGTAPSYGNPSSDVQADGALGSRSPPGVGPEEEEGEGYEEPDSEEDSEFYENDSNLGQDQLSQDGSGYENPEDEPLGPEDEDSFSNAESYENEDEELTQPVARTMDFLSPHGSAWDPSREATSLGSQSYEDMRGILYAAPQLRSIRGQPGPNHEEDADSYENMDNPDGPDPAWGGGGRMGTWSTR
The test can be described thus: cell binding, flow cytometry. On the procedure:
Binding to CD19 positive cells was assessed by flow cytometry (Guava easyCyte 8HT, EMD Millipore) using the Daudi cell line (ATCC). Briefly, 100,000 target cells were stained with a dilution series of purified UniAbs™ for 30 minutes at 4° C. Following incubation, the cells were washed twice with flow cytometry buffer (1X PBS, 1% BSA, 0.1% NaN₃) and stained with goat F(ab′)2 anti-human IgG conjugated to R-phycoerythrin (PE) (Southern Biotech, cat. #2042-09) to detect cell-bound antibodies. After a 20-minute incubation at 4° C., the cells were washed twice with flow cytometry buffer and then mean fluorescence intensity (MFI) was measured by flow cytometry. EC50 values were calculated using GraphPad Prism 7. Binding to cynomolgus CD19 positive cells was determined using the same protocol with the following modifications: the target cells were from CHO cells stably transfected to express the extracellular domain of cynomolgus CD19 and each antibody was tested at a single concentration (˜1.7 μg/mL) so EC50 values were not calculated.

The target in the next test is T2, human CD19 (human, UniProt P15391 20-291).
T2 construct: also called B-Lymphocyte Surface Antigen B4; recombinant CD19 extracellular domain
T2 sequence (looked up): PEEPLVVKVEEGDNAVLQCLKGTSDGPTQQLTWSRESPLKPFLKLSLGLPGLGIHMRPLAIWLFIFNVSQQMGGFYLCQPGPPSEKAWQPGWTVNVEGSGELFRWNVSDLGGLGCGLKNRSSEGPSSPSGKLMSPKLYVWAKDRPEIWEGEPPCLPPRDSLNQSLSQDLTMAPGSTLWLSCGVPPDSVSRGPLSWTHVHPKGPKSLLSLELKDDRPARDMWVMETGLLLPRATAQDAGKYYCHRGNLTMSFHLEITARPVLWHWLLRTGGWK
The test can be described thus: ELISA on recombinant CD19 extracellular domain and/or cell-binding assay.

B1: SEQ ID NO 21 (antibody, V domains shown)
VH: EVQLVESGGGLVQPGGSLRLSCVASGFTFSSYWMSWVRQAPGKGLEWVANIKQDGSEKEYVDSVKGRFTISRDNAKNSLYLQMNSLRAEDTAVYYCASGVYSFDYRGQGTLVTVSS
notes: Heavy chain-only antibody (UniAb, human IgG, no light chain, no CH1)
Take B1: the binding result (in test [1]; in the test with human CD19) was “binds” each time.

B2: SEQ ID NO 18 (antibody, V domains shown)
VH: EVQLVESGGGLVKPGGSLRLSCEASGFTFSSYWMSWVRQAPGKGLEWVAHIKQDGSEKYYVDSVKGRFTISRDNAKNSLYLQMNSLRAEDTAVYYCASGVYSFDYRGQGTLVTVSS
notes: as for B1
Take B2: the binding result (in test [1]; in the test with human CD19) was “binds” throughout.

B3: SEQ ID NO 16 (antibody, V domains shown)
VH: EVQLVESGGGMVQPGGSLRLSCAASGFTFSSYWMSWVRQAPGKGLEWVATINQDGSEKDYVDSVKGRFTISRDNAKKSLLLQMNSLRAEDTAVYYCASGVYSFDYRGQGTLVTVSS
notes: as for B1
Take B3: the binding result (in test [1]; with human CD19) was “binds” throughout.

B4: SEQ ID NO 20 (antibody, V domains shown)
VH: EVQLVESGGGLVQPGGSLTLSCVASGFTFSDYYMSWIRQAPGKGLEWVANIKQDGSEKFYVDSVKGRFTISRDNPKNSLYLQMDSLRVEDTAVYYCASGVYSFDYRGQGTLVTVSS
notes: as for B1
Regarding B4, the binding result (in test [1]; with human CD19) was “binds” each time.

B5: SEQ ID NO 14 (antibody, V domains shown)
VH: EVQLVESGGGLVQPGGSLRLSCAASGFTFSNYWMSWVRQAPGKGQEWVATINQDGSDKDYVDSVKGRFTISRDNAKKSLYLQMNSLRAEDTAVYYCASGVYSFDYRGQGTLVTVSS
notes: as for B1
On to B5, for which the binding result (in test [1]; in the test with human CD19) was “binds” in each case.

B6: SEQ ID NO 15 (antibody, V domains shown)
VH: EVQLVESGGGLAQPGGSLRLSCAASGFTFSSFWMSWVRQAPGKGLEWVATMNQDGSEKDYVDSVKGRFTISRDNAKNSLYLQMNSLTAEDTAVYYCASGVYSFDYRGQGTLVTVSS
notes: as for B1
Take B6: the binding result (in test [1]; in the test with human CD19) was “binds” throughout.

B7: SEQ ID NO 17 (antibody, V domains shown)
VH: EVQLVESGGGLVQPGGSLRLSCAASGFSFSDFWMSWVRQAPGKGLEWVATISQAGSEKDYVDSVKGRFTISRDNAKKSLYLQMNSLRAEDTAVYYCASGVYSFDYRGQGTLVTVSS
notes: as for B1
Turning to B7, the binding result (in test [1]; in the test with human CD19) was “binds” throughout.

B8: SEQ ID NO 19 (antibody, V domains shown)
VH: EVQLVESGGGLVQPGGSLRLSCVASGFTFSDYWMSWVRQAPGKGLEWVANINKAGSEEFYVDSVKGRFTISRDNAKNSLYLQMDSLRAEDTAVYYCASGVYSFDYRGQGTLVTVSS
notes: as for B1
As for B8, the binding result (in test [1]; with human CD19) was “binds” throughout.

Source of the values: patent US20210332133A1 (TENEOTWO, published 2021).
